Data taken from the Human Domainome abundance scans (Beltran et al. 2025).

B1: Tudor domain-containing protein 3, residues 554 to 611; numbered along this chain, Q9H7E2 (parent)
chain: KMWKPGDECFALYWEDNKFYRAEVEALHSSGMTAVVKFIDYGNYEEVLLSNIKPIQTE
B2: Transcription intermediary factor 1-beta, residues 620 to 671; numbered along this chain, Q13263 (parent)
chain: TLDDSATICRVCQKPGDLVMCNQCEFCFHLDCHLPALQDVPGEEWSCSLCHV

Variants of: B1
Test: abundance fitness (aPCA) (normalised: wild type 0, dead -1); higher = more abundant; growth selection in yeast, the domain comes from the species named
Settings: Homo sapiens

Abundance fitness, by site and new letter:
L48: M -0.113, N -0.104, P -0.077, Q -0.008, R -0.197, T -0.218, V -0.354, W -0.356, Y -0.247
L49: C -0.243, D -0.886, E -0.924, F -0.602, G -0.954, I -0.026, K -0.774, M -0.032, N -1.05, P -0.922, Q -0.583, R -0.708, S -0.645, V -0.046, W -0.629, Y -0.464
S50: A 0.019, C -0.08, D 0.026, E -0.118, F -0.605, G -0.155, H 0.048, I -0.192, K 0.03, L -0.523, M -0.255, N -0.217, P -0.548, Q -0.115, R -0.155, T 0.059, V -0.082, W -0.585, Y -0.437
N51: A -0.308, C -0.205, D -0.097, E -0.272, F -1.02, G -0.462, H 0.055, I -0.837, K -0.418, L -0.727, M -0.364, P -1.02, Q -0.036, R -0.485, S -0.205, T -0.529, V -0.925, W -0.271, Y -0.678
I52: A -0.824, C -0.37, D -0.857, E -0.911, F -0.906, G -0.895, H -1.04, K -0.974, L 0.032, M 0.028, P -0.639, Q -1.01, R -0.938, S -0.853, T -0.686, V -0.184, W -0.81, Y -0.923
K53: A -0.276, C -0.238, D -0.659, E -0.261, F -0.229, G -0.711, H -0.213, I -0.145, L -0.217, M -0.192, N -0.378, P -0.809, Q -0.12, R 0.008, T -0.109, V -0.194, W -0.242, Y -0.214
P54: A -0.162, C -0.429, D -0.229, E -0.006, F -0.701, G -0.332, H -0.181, I -0.5, K -0.138, L -0.36, N -0.41, Q -0.188, R -0.17, S -0.158, T -0.125, V -0.298, W -0.767, Y -0.565
I55: A -0.028, C -0.041, D -0.415, E -0.558, F -0.1, G -0.351, K -0.139, M -0.096, N -0.265, P -0.084, R -0.068, S -0.192, T -0.18, V -0.039, W -0.372, Y -0.132
Q56: C 0.008, D -0.061, E 0.113, F -0.071, G 0.031, H 0.041, I -0.038, K -0.065, L -0.07, M -0.037, P 0.015, R -0.078, S -0.054, T -0.003, V -0.02, W -0.189
T57: A 0.041, C -0.005, D 0.083, E 0.114, F -0.123, G 0.029, H 0.06, I -0.036, K -0.047, N 0.019, Q 0.02, R -0.047, S 0.021, V 0.04, W -0.272, Y -0.072
E58: A -0.133, C -0.062, D -0.058, F -0.314, G -0.042, H -0.304, I -0.187, K -0.024, L -0.183, M -0.175, N 0.049, Q -0.252, R -0.111, S 0.113, T -0.037, V -0.136, W -0.068, Y -0.157

Variants of: B2
Test: as above
Settings: Homo sapiens

Abundance fitness of substitutions, site by site:
T1: A 0.314, D 0.178, E -0.11, G -0.602, H -0.593, K 0.109, M -0.363, N 0.184, R -0.495, S -0.096, V -0.043, W -0.8
L2: C -0.198, D -0.078, E 0.021, F -0.168, G -0.604, H -0.678, I -0.112, K -0.056, M 0.021, N 0.017, P 0.179, Q 0.016, R -0.252, S -0.004, V -0.13, W -0.323, Y 0.045
D3: A -0.723, C -0.534, E 0.13, F 0.053, G -0.411, H -0.205, I -0.292, K 0.027, L -0.242, M -0.529, N -0.112, Q -0.603, R -0.294, S -0.223, T -0.661, V -0.487, W -0.302
D4: A -0.141, C 0.201, F -0.19, G -0.219, H -0.035, K 0.284, L 0.135, M 0.083, N 0.074, P -0.155, Q -0.294, R 0.015, S 0.016, V 0.148
S5: C -0.157, D -0.267, E -0.314, F -0.227, G -0.308, I -0.04, K -0.03, L -0.596, M -0.267, N -0.444, P -0.18, Q -0.215, R -0.064, T -0.193, V -0.381, W -0.307
A6: C -0.973, D -0.274, E 0.25, H -0.303, L -0.202, M -0.069, P -0.234, Q -0.261, R -0.275, S -0.223, V -0.35, W -0.86
T7: A -0.123, C -0.451, D 0.024, E 0.004, F -0.383, G -0.207, H -0.138, I -0.013, K -0.022, L -0.41, M -0.143, N -0.176, P -0.204, Q -0.118, R 0.077, S -0.079, V -0.066, W -0.429, Y 0.007
I8: A -0.099, C 0.083, D -0.51, E -0.065, F 0.087, G -0.418, H -0.123, K -0.107, L 0.03, M 0.056, N -0.045, P -0.302, Q 0.085, V -0.095, W -0.348, Y 0.077
C9: A -0.861, G -0.931, I -0.955, K -0.802, M -0.706, N -0.469, P -0.324, Q -1.12, R -1.18, S -0.848, T -0.926, V -0.902, W -0.905, Y -1
R10: A -0.327, C -0.363, D -0.108, E -0.476, F -0.271, G -0.291, H 0.136, I -0.866, K 0.206, M -0.113, N 0.094, P -0.301, Q -0.296, S 0.161
